The results in this text go back to paper PMC10006087, “The TINCR ubiquitin-like microprotein is a tumor suppressor in squamous cell carcinoma” (Nature Communications, 2023).

The data set deals with the molecule itself. Put plainly: crystal structure; micro-batch under oil at 4 °C with seeding; 0.1 M magnesium sulfate heptahydrate, 0.1 M sodium acetate pH 5, 20% (w/v) PEG 1000; space group P4(3)2(1)2; 2.12 Å; two protomers in the asymmetric unit.

B1: human TINCR protein (natural protein, UniProt A0A2R8Y7D0 1-87, looked up)
chain: MEGLRRGLSRWKRYHIKVHLADEALLLPLTVRPRDTLSDLRAQLVGQGVSSWKRAFYYNARRLDDHQTVRDARLQDGSVLLLVSDPR
notes: TINCR ubiquitin-like microprotein, human; The N-terminal 15-residue cap is visible in protomer A only; also called TINCR ubiquitin-like microprotein; TINCR recombinant protein
As to B1, the binding result was “binds”.
